Laboratory results as given in patent US8841272B2, “Double-stranded RNA-based nanoparticles for insect gene silencing” (Kansas State University Research Foundation, priority 2011, dated 2014).

Key:
[1] = tested on: AgCHS1; assay: qPCR of AgCHS1 transcript level in mosquito larvae after larval feeding; assay type: in vivo, Anopheles gambiae; settings: 3rd-instar larvae fed once a day for 4 days on dsRNA nanoparticles, vs GFP dsRNA nanoparticles
Protocol: (§1) A group of 15-20 3rd-instar mosquito larvae was transferred into a 500-ml glass beaker containing 100 ml of deionized water. One sixth of the gel slices that were prepared from 32 μg of dsRNA, as described above, were added into each beaker. Approximately an equal amount of the gel slices was used to feed the larvae once a day for a total of four days. Any potential phenotypic changes were visually examined in the larvae during the experiment. The transcript levels of AgCHS1 or AgCHS2, chitin contents, and other phenotypic changes were assessed in the larvae at the end of the experiment (i.e., day 4).
(§2) Total RNA was extracted from mosquito larvae with TRIzol reagent (Invitrogen, Carlsbad, Calif.) and 3.5 μg of total RNA was used for first strand cDNA synthesis using the First Strand cDNA Synthesis kit (Fermentas, Glen Burnie, Md.). The first strand cDNA was then used as template for PCR and qPCR. A gene encoding ribosomal protein S3, AgRPS3, was used as an internal reference. PCR was performed with a PCR Master Mix kit (Fermentas). The qPCR was performed using a Maxima SYBR Green qPCR Master Mix (Fermentas), and the 2^−ΔΔCT method was used to calculate the relative levels of AgCHS1 and AgCHS2 transcripts in the mosquito larvae fed on the food containing the AgCHS1 or AgCHS2 dsRNA-based nanoparticles as compared with the control larvae fed on the food containing the GFP dsRNA-based nanoparticles.
(§3) For data obtained from qPCR, relative expression levels in percentage were calculated by dividing the relative expression value (REV) of each gene in the AgCHS dsRNA-treated larvae by the REV of the same gene in the GFP dsRNA-treated larvae. After the percentage data of the relative AgCHS expression were transformed using arcsine square root transformation, the transformed data were subjected to ANOVA followed by Fisher's least significant difference (LSD) multiple comparisons to separate the means among the treatments using ProStat software (Poly Software International, Pearl River, N.Y.).

[2] = tested on: AgCHS2; assay: qPCR of AgCHS2 transcript level in mosquito larvae after larval feeding; assay type: in vivo, Anopheles gambiae; settings: 3rd-instar larvae fed once a day for 4 days on dsRNA nanoparticles, vs GFP dsRNA nanoparticles
Protocol: as §1, §2, §3

B1: dsAgCHS1-f1: dsRNA synthesized using residues 2,267 to 2,635 of SEQ ID NO: 1 as the template (nucleic acid, listed as Anopheles gambiae)
DNA: TGAAACGCACATCTTCTTCGATGACGCGTTCGAAATTTCGGACCACAGCGACGAGGACATTCAGTGTAATCGGTTCGTGAAGATTCTTGTCGACACCATCGACGAAGCTGCCTCGGAAGTGCATCAGACCAACATTCGATTGAGACCGCCCAAAAAGTACCCAACACCGTACGGTGGACGACTGGTGTGGACGCTGCCCGGTAAAACGAAGATGATTGCCCACCTGAAGGACAAGGATCGCATCCGGCACCGTAAGCGTTGGTCTCAGGTCATGTACATGTACTATCTGCTCGGCCACCGGCTGATGGAGCTGCCGATTTCCGTCGACCGTAAGGAGGTGATGGCGGAAAACACCTACCTGCTGACGCT
modifications: double-stranded RNA
repression of the transcript level of AgCHS1 [1]: 62.8% | repression of the transcript level of AgCHS2 [2]: 48.4%

B2: dsAgCHS2-f1: dsRNA synthesized using residues 3,846 to 4,235 of SEQ ID NO: 3 as the template (nucleic acid, listed as Anopheles gambiae)
DNA: ACACATCGAGTGGTGGTTCAACGTGAAGAACAAGATCAGCTTTGACGAAAGCACGGTCGAGATCATGATCCGGCGCGAGTACCTGGAGCTCGAACCGATCGGTTTGGTGTTTGTGATGTTCTTCGGTTTGATTCTCATCATTCAGTTTGTGGCCATGCTGATGCATCGGTTCGGTACCATCTCCCAGATTCTTGCCTCCACCGAGCTGAACTGGTACTGTTCGAAGAAGGCTAAGGATATGTCACTCGATGCGGAACTGCGCGAGAATGCGGTCGAAATTGCACGTCGACTGCAGCGCCCCAAACCGCAGTGGGACGAGGAAGATCTAGAGGACGAGCAGAAAGCTATTGGACGTCGCGACACGATCCATCGCATTCTCTACCAGCACAA
modifications: double-stranded RNA
repression of the transcript level of AgCHS1 [1]: none of these AgCHS2 dsRNAs repressed | repression of the transcript level of AgCHS2 [2]: 63.4%

B3: dsAgCHS1-f2: dsRNA synthesized using residues 3,812 to 4,202 of SEQ ID NO: 1 as the template (nucleic acid, listed as Anopheles gambiae)
DNA: CAAAACGACGGACGAGAAGGCGCAGCTGATTCACATTGCCGATGCGCTGGACGCCATTACGAAGAAGATTGAGAATCTGGAAAAGCACATCGACCCGCACGGACATCATACGCGCAAGCGCACTGCGTCGGCGGGGTCGAAGGATCACCATCTCGGCTCGGTGGCGGAGGATACGGAGGACGATGATGAGGATGAAGATTCGGAGACTTCGACGCTGCAGCGCGACGAGCGCGACTTCCTCACCAACCCGTACTGGATCGAGGATCCGGATCTGAAGAAGGGCGAGGTGGACTTTATTTCCAGCACCGAGATCCAGTTCTGGAAGGACCTGATCGATAAGTACCTATACCCGATCGATCAAAACAAGGAGGAACAGGCACGTATTGCGCAC
modifications: double-stranded RNA
repression of the transcript level of AgCHS1 [1]: 52.4% | repression of the transcript level of AgCHS2 [2]: 57.9%

B4: dsAgCHS2-f2: dsRNA synthesized using residues 3,331 to 3,719 of SEQ ID NO: 3 as the template (nucleic acid, listed as Anopheles gambiae)
DNA: GCCAGCGCCGAAAAGGAGCAAATCGCACAAATTGCGGCATCGCTCAGCGAAATAAGTGTAAAAATGAAGGCACTGGAAATGAAATTAACCGGCAACGTCAGCGTAATGAGATCAGACGACGAAGATGATGACATCGGTAGTCTCGATATGCATCGTCCGGAAGGTAACCGTGGCCCATCCTCGCCATCCTCCACCTCGGGCGCCGCCTCCCCGATCCAGACGGTGAAAAATGATTCCCTCGAAGAGCCCGAGAAGCAGATTAACTATCTGCCGGATTGGTTGTACGACGTGGATTTGAAAAACGGCGACACTGAGACGATCTCCGCCTCGGAGGAGCAATTCTGGATTGAGCTGATCGAGAAGTATCTGAAGCCGCTCGATCTGTCGGA
modifications: double-stranded RNA
repression of the transcript level of AgCHS1 [1]: none of these AgCHS2 dsRNAs repressed | repression of the transcript level of AgCHS2 [2]: 48.8%
